# Laboratory results taken from patent US20160271157A1, “BETA-CATENIN” (UCL BUSINESS PLC, priority 2013, published 2016).
# Test system: Cos7 simian kidney cell line
# Experiment: Live [Ca2+]i imaging after addition of Wnt ligand, Cos7
# Type: cell-based
# Details: Cos7 cells
# Description: The imaging protocol was developed in the inventor's laboratory and has been described in detail, elsewhere (Wang at al., (2010) PLoS ONE 5, e10456). Briefly, 100000-200000 PC3, MCF7, 253J or Cos 7 cells were plated on 35 mm FluoroDish (WPI) and grown for 48 h; calcium indicators Fluo-4 (Invitrogen) and FuraRed (Invitrogen) at 1 ng/ml were added to FluoroDish containing only 1 ml of culture medium and incubated for 15-20 min at 37° C. The culture medium was removed and washed (×2) and replaced with 1 ml PBS. Live cell calcium Imaging was performed on an Olympus FluoView FV 1000 confocal microscope (Olympus […]) equipped with a 20× dry objective (numerical aperture=0.75). Calcium indicators were excited with an argon laser line (488 nm) and emissions recorded in the green channel (500-560 nm) for Fluo-4 and red channel (600-700 nm) for FuraRed after addition of vehicle control (PBS) or Wnt X (30-600 ng/ml). […] Fluorescent intensity was measured and data exported as a tab delimited file for further analysis using a spreadsheet. All imaging experiments were performed in duplicate; intracellular calcium at 100 ng/ml was measured in at least 3-12 different passages (passage numbers 25 to 37) of cell line for each Wnt ligand. […] The measurements were exported as a tab delimited file into a spreadsheet for further analysis and Fluo4/Fura Red ratios were calculated. […]
molecule,measurement,value
"Wnt5A: Recombinant Wnt peptide purchased from R&D systems (protein, UniProt P41221 62-380, looked up) Protein Wnt-5a: IIGAQPLCSQLAGLSQGQKKLCHLYQDHMQYIGEGAKTGIKECQYQFRHRRWNCSTVDNTSVFGRVMQIGSRETAFTYAVSAAGVVNAMSRACREGELSTCGCSRAARPKDLPRDWLWGGCGDNIDYGYRFAKEFVDARERERIHAKGSYESARILMNLHNNEAGRRTVYNLADVACKCHGVSGSCSLKTCWLQLADFRKVGDALKEKYDSAAAMRLNSRGKLVQVNSRFNSPTTQDLVYIDPSPDYCVRNESTGSLGTQGRLCNKTSEGMDGCELMCCGRGYDQFKTVQTERCHCKFHWCCYVKCKKCTEIVDQFVCK",[Ca2+]i activation in response to Wnt ligand,activated [Ca^2+]i
